Measurements taken from the supplement of paper PMC10567573.
± gives the standard deviation.

Experiment: protein stability index of a GFP-peptide fusion (GPS, HEK-293T) (PSI 1-6); higher = more stable
[1] = treatment: DMSO, c terminus: a fixed tail appended
[2] = treatment: MLN4924 1 uM, 8 h, c terminus: a fixed tail appended
[3] = treatment: DMSO, c terminus: native
[4] = treatment: MLN4924 1 uM, 8 h, c terminus: native
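Note: 24-mer peptide tiles fused after GFP, lentivirally expressed, FACS-sorted into six equal bins by GFP/DsRed ratio, decoded by Illumina sequencing, PSI is the read-weighted mean bin number.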

| Sequence | protein stability index [1] | protein stability index [2] | protein stability index [3] | protein stability index [4] |
| --- | --- | --- | --- | --- |
| GPQTPKACDSKLTFDAITTIRGEV [MMP1] | 3.69 ± 0.28 | 3.66 ± 0.25 | – | – |
| YSLFVGLFLFGYKFSGLYILSFTV [SLC35F2] | 3.24 ± 0.39 | 3.07 ± 0.39 | – | – |
| LRALREKLFAHSSDLLSEFKKHDA [PPEF2] | 2.1 ± 0.33 | 2.29 ± 0.42 | – | – |
| EETHLEETTESQQNGEEGTSTPED [SMARCE1] | 5.48 ± 0.29 | 5.63 ± 0.23 | – | – |
| HYCNSSTDRRVLLMFLDICSELNK [SPACA9] | 2.18 ± 0.35 | 2.21 ± 0.29 | – | – |
| KDEEGRLRDPATITTLRVPVLRPM [PPP2R2B] | 3.78 ± 0.23 | 4.04 ± 0.26 | – | – |
| PAPALCCAPYDSRLLGSARPELGA [IRX6] | 3.08 ± 0.19 | 3.1 ± 0.25 | – | – |
| LSLPYLPSGTPELEVPKPGQPSEP [CHIT1] | 5.09 ± 0.22 | 5.21 ± 0.15 | – | – |
| TKLPENQAIQMRLVDVACKHLTDT [INTS4] | 3.41 ± 0.11 | 3.58 ± 0.069 | – | – |
| KTSAALSTVGSAISRKLGDMRNSA [TPD52L2] | 3.64 ± 0.29 | 3.7 ± 0.29 | – | – |
| VVKVLLESGASIEDHNENGHTPLM [ANKRD17] | 3.17 ± 0.25 | 3.25 ± 0.26 | – | – |
| DIEQFFNIGDSSSGLIQTVFISSY [SPNS1] | 2.68 ± 0.39 | 2.66 ± 0.8 | – | – |
| LQHMKAVQADQERERQRRLEVERE [LRRC59] | 5.24 ± 0.33 | 5.09 ± 0.27 | – | – |
| IEPLVPEEKMETKTESSGIETEPT [EPB41L3] | 5.45 ± 0.31 | 5.46 ± 0.51 | – | – |
| APDDSKAQAHRIHIDPEIQDGSPT [PDLIM4] | 5.59 ± 0.23 | 5.47 ± 0.12 | – | – |
| FVLFLFAYLVTVRGNLSILAAVLV [OR3A1] | 3.21 ± 0.52 | 3.33 ± 0.34 | – | – |
| QPFYHDDSYTATGYGRAPGGLSLH [JUNB] | 3.18 ± 0.39 | 3.36 ± 0.24 | – | – |
| LFYILTFVGAIFNGLTLLILGVIG [RTN2] | 2.7 ± 0.85 | 3.01 ± 0.67 | – | – |
| RRGSWRLPYTDGLSWELLDSHLGG [CTBP1-DT] | 2.09 ± 0.09 | 2.66 ± 0.26 | – | – |
| FRTKFETEQALRLSVEADINGLRR [KRT17] | 3.37 ± 0.14 | 3.38 ± 0.32 | – | – |
| PKRCLKAREHFGTVKTHLTSLKTK [TSN] | 3.72 ± 0.32 | 3.88 ± 0.34 | – | – |
| RIRSQIGNTESELKKLAEENPDLQ [GDAP1] | 5.42 ± 0.18 | 5.39 ± 0.12 | – | – |

| Sequence | protein stability index [1] | protein stability index [2] | protein stability index [3] | protein stability index [4] |
| --- | --- | --- | --- | --- |
| ITRPSPRRSNSPDKFKRPTPPPSP [CCDC6] | 5.18 ± 0.13 | 5.44 ± 0.081 | – | – |
| FQQDTKGLVDFRDVALALAALDGG [LPCAT4] | 2.48 ± 0.3 | 2.71 ± 0.2 | – | – |
| VVSTSGEQMKVYKCEHCRVLFLDH [IKZF1] | 2.69 ± 0.4 | 2.3 ± 0.64 | – | – |
| LALSPDLSLSNATVLTRSLFLGRI [FANCE] | 2.35 ± 0.36 | 2.24 ± 0.3 | – | – |
| RFPESHLPIQTPGAFLRTCLLSSN [TLE6] | 2.71 ± 0.14 | 2.6 ± 0.26 | – | – |
| RCLIWGRKPKVIECSYTSADGQRH [DHCR7] | 2.61 ± 0.33 | 2.77 ± 0.33 | – | – |
| LCIIWFSFELLVRFFACPSKATFS [KCNA3] | 3.13 ± 0.39 | 3.12 ± 0.58 | – | – |
| LASYLDRVRSLETENRRLESKIRE [KRT18] | 3.58 ± 0.34 | 3.7 ± 0.11 | – | – |
| NCCLTLCNFSIPEELEFQYRRVNE [ZER1] | 2.55 ± 0.33 | 2.55 ± 0.14 | – | – |
| LSLLDNNIPGNSTLITAVELERFV [FBXO33] | 2.44 ± 0.95 | 2.36 ± 0.15 | – | – |
| MNHFTVNLNREEKIIREIDFYRED [TRIM55] | 3.46 ± 0.4 | 3.61 ± 0.33 | – | – |
| GYHQVPGSAAPGSPLAADPACLGQ [FOXJ1] | 4.46 ± 0.22 | 4.29 ± 0.18 | – | – |
| CPLKNPTFLDYVRPRSWTCRYVF [SOAT1] | – | – | 3.22 ± 0.47 | 3.06 ± 0.42 |
| RDVPESPQHAADTPKSGEPRVPEE [YJU2B] | 5.44 ± 0.19 | 5.53 ± 0.24 | – | – |
| NITINIVDDHTPWVKGSVPPPLDQ [CLPTM1] | 2.83 ± 0.28 | 2.77 ± 0.34 | – | – |
| IYRRYRQFHALQSKLEERFGPDSK [NCF4] | 2.28 ± 0.23 | 2.61 ± 0.34 | – | – |
| KMNGSHRDQGSSALSGVGGIRLPN [IKZF1] | 4.1 ± 0.32 | 3.8 ± 0.12 | – | – |
| RCGKHFGTILNYLRDGAVPLPESR [KCTD10] | 2.27 ± 0.3 | 2.38 ± 0.32 | – | – |
| DTALLNLLPMLDALRFTADVRSVL [CTDNEP1] | 2.78 ± 0.48 | 2.58 ± 0.42 | – | – |
| EHGEKIYFFCENDAEFLCVFCREG [TRIM15] | 2.36 ± 0.082 | 2.53 ± 0.42 | – | – |
| VGTMVGADILAGREDNSGSDVLIG [SLC35F2] | 4.79 ± 0.26 | 4.55 ± 0.22 | – | – |
| ETQNAFLNERKQASAIKKEELVAR [CHGB] | 3.57 ± 0.12 | 3.77 ± 0.24 | – | – |

| Sequence | protein stability index [1] | protein stability index [2] | protein stability index [3] | protein stability index [4] |
| --- | --- | --- | --- | --- |
| EVVVAESELQKELKKVKTAHSNDG [DPCD] | 5.18 ± 0.25 | 5.25 ± 0.32 | – | – |
| TEDSPLGTVVALLNVHDLDSEQNG [PCDHGA10] | 4.86 ± 0.18 | 4.94 ± 0.27 | – | – |
| LYKALGAQDLTEAEGWHFFCFQGE [SAT2] | 2.5 ± 0.27 | 2.29 ± 0.43 | – | – |
| RDEVRFFKGNKYWAVQGQNVLHGY [MMP1] | 2.35 ± 0.22 | 2.51 ± 0.14 | – | – |
| QHHHHHHHHHGRDFLLRAASFDVC [RHOBTB2] | 2.55 ± 0.14 | 2.58 ± 0.2 | – | – |
| ADDAAAVAAKCPRLSECSSPPDYL [TRIB1] | 5.03 ± 0.79 | 5.22 ± 0.17 | – | – |
| EEENPGGCEDEYLVNPTCQVLVKD [ZER1] | 5.54 ± 0.22 | 5.54 ± 0.22 | – | – |
| YSNTDANILFYVVGLRNTLTRIRK [GLT8D2] | 2.3 ± 0.61 | 2.45 ± 0.3 | – | – |
| NSLRGVILDIHFLSQADFLVCTFS [FUT8] | 2.72 ± 0.71 | 2.79 ± 0.49 | – | – |
| CNQCGKCFIQSSHLIRHQITHTRE [ZNF8] | 4.28 ± 0.19 | 4.47 ± 0.21 | – | – |
| SRAPQLHLEYRFYKQLGSAGEGLP [CSNK1G1] | 2.73 ± 0.44 | 2.84 ± 0.19 | – | – |
| PTSPVYRGSSSGPSSPARVSTTPR [MTUS2] | 5 ± 0.25 | 4.95 ± 0.33 | – | – |
| PDTQLLKFQLNKYTGEIKISENLD [PCDHGA10] | 3.43 ± 0.44 | 3.66 ± 0.17 | – | – |
| DVSLCRWHPKPYCQALPYGPGYWM [FBXO34] | 2.33 ± 0.35 | 2.15 ± 0.32 | – | – |
| FQTAIDIFEDRIRGIDIIKWMERY [TRAF3IP2] | 1.9 ± 0.34 | 2.43 ± 0.66 | – | – |
| RRYVARLEMRRRCTWSIFQSIEYA [PPEF2] | 1.86 ± 0.94 | 2.26 ± 0.14 | – | – |
| EGREAPALVAAGGAPEDDEEDDGR [DENND6A] | 5.68 ± 0.29 | 5.72 ± 0.3 | – | – |
| STRQTQSWTAVTPQQTWASPAEVV [C18orf25] | 3.63 ± 0.078 | 3.98 ± 0.24 | – | – |
| DETFLATSFLQHPWDESGSGCLPP [FOXJ1] | 4.15 ± 0.16 | 4.11 ± 0.079 | – | – |
| LPLRVSFCPLSLWRWQLYAAQSTK [CLPTM1] | 2.31 ± 0.29 | 2.24 ± 0.7 | – | – |
| PTTSHRLSRHDKAVQRFCLIGSLS [NETO1] | 2.28 ± 0.23 | 2.45 ± 0.48 | – | – |
| FGELMRKLWNPRNFKAHVSPHEML [USP39] | 2.51 ± 0.43 | 2.25 ± 0.084 | – | – |

| Sequence | protein stability index [1] | protein stability index [2] | protein stability index [3] | protein stability index [4] |
| --- | --- | --- | --- | --- |
| NYSIPSNVTNLEGGPGRQTTSPNV [ESR2] | 4.66 ± 0.36 | 4.68 ± 0.27 | – | – |
| RALNSVPVIIAAVGTRQNEELPCT [RHOBTB3] | 3.39 ± 0.24 | 3.46 ± 0.16 | – | – |
| GHSLKNLEHRLNEMERTQAQLRDA [RASAL3] | 4.51 ± 0.24 | 4.58 ± 0.22 | – | – |
| YLRSKLCSLYENDCIFDKFECAWN [PPP2R2C] | 2.81 ± 0.57 | 2.61 ± 0.66 | – | – |
| ICPSTFACAQLATGAACRLVEAVL [HDAC6] | 2.17 ± 0.32 | 2.14 ± 0.049 | – | – |
| RLTREVEATRRALIDRMVNLHQA [DDIT3] | – | – | 3.44 ± 0.073 | 3.83 ± 0.32 |
| VLSVSKILHIPQVTKLCVQFLNDQ [KLHL14] | 2.52 ± 0.48 | 2.29 ± 0.35 | – | – |
| EIFQKPFQTLMFLVRDWSFPYEYS [ATL3] | 2.73 ± 0.56 | 3.52 ± 0.089 | – | – |
| LSPPEQAAQPMQPLPESLASLHPS [PLAGL1] | 5.12 ± 0.16 | 4.93 ± 0.31 | – | – |
| GASKAAGVFGFFATIVFATDFYLI [CMTM3] | 3.07 ± 0.23 | 2.88 ± 0.88 | – | – |
| LQRHADEFLLDLGHHERSIMTDLY [FUT8] | 2.55 ± 0.21 | 2.69 ± 0.26 | – | – |
| PRVEYIDRPRCCLRGKECCINRFQ [BTBD1] | 2.42 ± 0.13 | 2.61 ± 0.28 | – | – |
| CSRTWTNRLCHQEMGSKKTVTQED [SPAG8] | 3.7 ± 0.13 | 3.74 ± 0.14 | – | – |
| SVLNGKFANLIKEFVIIDCRYPYE [CDC25A] | 2.63 ± 0.36 | 2.55 ± 1 | – | – |
| LSWLVWLLLLLLASLLPSARLASP [ADAMTS4] | 2.99 ± 0.65 | 2.5 ± 0.3 | – | – |
| EATNGREGLLRFSSWPFSIQDVVQ [AUP1] | 2.93 ± 0.21 | 3.09 ± 0.37 | – | – |
| APLLRWVLTLSFLVATVAVGLYAM [HMOX1] | 2.84 ± 0.56 | 2.74 ± 0.69 | – | – |
| KILHTAWHPAENIIAIAATNNLYI [PPP2R2C] | 2.81 ± 0.54 | 2.93 ± 0.53 | – | – |
| SAFGNVKLVVHDCPVWDIFDSDWY [RHOBTB3] | 2.17 ± 0.33 | 2.2 ± 0.12 | – | – |
| KECGKVFSQSAGLIQHQRIHKGEK [ZSCAN9] | 4.42 ± 0.16 | 4.48 ± 0.3 | – | – |
| FQNRRMKHKRQMQDPQLHSPFSGS [VENTX] | 3.3 ± 0.38 | 3.48 ± 0.31 | – | – |
| MDSFKVVLEGPAPWGFRLQGGKDF [PDLIM7] | 2.1 ± 0.24 | 2.52 ± 0.23 | – | – |
